# Source: the supplement of paper PMC9112550, “Optimization of the antimicrobial peptide Bac7 by deep mutational scanning” (BMC Biology, 2022)
# Tested on: Escherichia coli TOP10
# Experiment: shrunken log2 fold change of peptide-encoding DNA abundance (4.5 h post-induction vs induction); higher = less antimicrobial activity (less host growth inhibition)
# Settings: time post-induction: 4.5 h; library: site-saturation at positions 5, 18, 19, 20
# 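Further: peptides expressed intracellularly from a pBAD plasmid library in pooled LB shake-flask culture, induced with 0.3% L-arabinose, DNA abundance read by NGS, three biological replicates, DESeq2 with apeglm shrinkage.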
row,Sequence,shrunken log2 fold change
1,RRIRIRPPRLPRPRPRPQNWPRP,-0.517
2,RRIRGRPPRLPRPRPRPMHYPRP,-0.165
3,RRIRWRPPRLPRPRPRPVTFPRP,-0.186
4,RRIRVRPPRLPRPRPRPCPLPRP,-0.418
5,RRIRERPPRLPRPRPRPPHPPRP,-0.0298
6,RRIRSRPPRLPRPRPRPEGQPRP,0.193
7,RRIRLRPPRLPRPRPRPISGPRP,-0.462
8,RRIRGRPPRLPRPRPRPKHCPRP,0.216
9,RRIRSRPPRLPRPRPRPSDYPRP,-0.87
10,RRIRWRPPRLPRPRPRPPPYPRP,0.0878
11,RRIRIRPPRLPRPRPRPMKPPRP,-0.00581
12,RRIRERPPRLPRPRPRPNDLPRP,-0.016
13,RRIRQRPPRLPRPRPRPLCDPRP,-0.131
14,RRIRIRPPRLPRPRPRPTHYPRP,-0.392
15,RRIRDRPPRLPRPRPRPTWHPRP,0.376
16,RRIRRRPPRLPRPRPRPQHKPRP,0.0372
17,RRIRERPPRLPRPRPRPGIMPRP,-0.738
18,RRIRIRPPRLPRPRPRPIVSPRP,-0.102
19,RRIRARPPRLPRPRPRPGDQPRP,0.804
20,RRIRERPPRLPRPRPRPHVSPRP,-0.0346
21,RRIRWRPPRLPRPRPRPTFIPRP,-0.417
22,RRIRFRPPRLPRPRPRPQNLPRP,-0.218
23,RRIRERPPRLPRPRPRPNEVPRP,0.0321
24,RRIRDRPPRLPRPRPRPRNEPRP,0.00109
25,RRIRERPPRLPRPRPRPNGVPRP,-0.2

row,Sequence,shrunken log2 fold change
1,RRIRERPPRLPRPRPRPMHNPRP,-0.437
2,RRIRIRPPRLPRPRPRPNWKPRP,-0.00224
3,RRIRLRPPRLPRPRPRPMKPPRP,-0.0332
4,RRIRYRPPRLPRPRPRPWWCPRP,-0.139
5,RRIRSRPPRLPRPRPRPRGYPRP,0.13
6,RRIRFRPPRLPRPRPRPSSNPRP,-0.715
7,RRIRHRPPRLPRPRPRPWRKPRP,-0.00968
8,RRIRGRPPRLPRPRPRPYMYPRP,-0.251
9,RRIRFRPPRLPRPRPRPTMTPRP,-0.0114
10,RRIRRRPPRLPRPRPRPMRDPRP,0.62
11,RRIRHRPPRLPRPRPRPFMGPRP,-0.103
12,RRIRTRPPRLPRPRPRPKPTPRP,0.0943
13,RRIRERPPRLPRPRPRPGWCPRP,0.00111
14,RRIRFRPPRLPRPRPRPVYQPRP,-0.0402
15,RRIRERPPRLPRPRPRPHHLPRP,-0.143
16,RRIRWRPPRLPRPRPRPVETPRP,-0.0256
17,RRIRRRPPRLPRPRPRPATMPRP,0.876
18,RRIRKRPPRLPRPRPRPQSCPRP,-0.0373
19,RRIRCRPPRLPRPRPRPMPGPRP,0.0112
20,RRIRERPPRLPRPRPRPQNTPRP,-0.497
21,RRIRARPPRLPRPRPRPTYLPRP,-0.023
22,RRIRPRPPRLPRPRPRPDGMPRP,-0.0319
23,RRIRQRPPRLPRPRPRPQEEPRP,-0.0176
24,RRIRERPPRLPRPRPRPWREPRP,0.127
25,RRIRTRPPRLPRPRPRPDCCPRP,0.135

row,Sequence,shrunken log2 fold change
1,RRIRWRPPRLPRPRPRPFGIPRP,-0.115
2,RRIRFRPPRLPRPRPRPDWVPRP,0.0788
3,RRIRMRPPRLPRPRPRPYLGPRP,-0.331
4,RRIRWRPPRLPRPRPRPMDYPRP,-0.314
5,RRIRIRPPRLPRPRPRPIFGPRP,-0.164
6,RRIRPRPPRLPRPRPRPNQYPRP,-0.509
7,RRIRYRPPRLPRPRPRPKRVPRP,0.0354
8,RRIRSRPPRLPRPRPRPAVAPRP,0.0474
9,RRIRTRPPRLPRPRPRPVHGPRP,-0.0733
10,RRIRQRPPRLPRPRPRPKYLPRP,-0.0386
11,RRIRDRPPRLPRPRPRPKNLPRP,-0.0874
12,RRIRRRPPRLPRPRPRPICTPRP,0.391
13,RRIRLRPPRLPRPRPRPSFCPRP,-0.403
14,RRIRGRPPRLPRPRPRPEECPRP,0.0881
15,RRIRNRPPRLPRPRPRPGCFPRP,0.126
16,RRIRCRPPRLPRPRPRPEIPPRP,0.0317
17,RRIRYRPPRLPRPRPRPFLNPRP,-0.369
18,RRIRIRPPRLPRPRPRPSKFPRP,-0.245
19,RRIRPRPPRLPRPRPRPIGQPRP,0.121
20,RRIRKRPPRLPRPRPRPHNIPRP,-0.1
21,RRIRLRPPRLPRPRPRPPPNPRP,1.18
22,RRIRFRPPRLPRPRPRPWTAPRP,-0.283
23,RRIRLRPPRLPRPRPRPPFWPRP,0.308
24,RRIRLRPPRLPRPRPRPVMVPRP,-0.0863
25,RRIRYRPPRLPRPRPRPFFTPRP,-0.675

row,Sequence,shrunken log2 fold change
1,RRIRKRPPRLPRPRPRPNALPRP,0.301
2,RRIRQRPPRLPRPRPRPWVGPRP,-0.0518
3,RRIRVRPPRLPRPRPRPEVEPRP,-0.0626
4,RRIRDRPPRLPRPRPRPEFSPRP,0.221
5,RRIRHRPPRLPRPRPRPNSPPRP,-0.337
6,RRIRIRPPRLPRPRPRPGCAPRP,0.185
7,RRIRLRPPRLPRPRPRPIKGPRP,-0.106
8,RRIRGRPPRLPRPRPRPRLPPRP,0.851
9,RRIRWRPPRLPRPRPRPLSKPRP,-0.0363
10,RRIRVRPPRLPRPRPRPWPTPRP,0.266
11,RRIRARPPRLPRPRPRPCWFPRP,0.107
12,RRIRPRPPRLPRPRPRPITKPRP,-0.0256
13,RRIRKRPPRLPRPRPRPIFGPRP,2.55
14,RRIRTRPPRLPRPRPRPSICPRP,-0.899
15,RRIRYRPPRLPRPRPRPWYLPRP,-0.268
16,RRIRIRPPRLPRPRPRPECEPRP,-0.0311
17,RRIRKRPPRLPRPRPRPRNQPRP,0.493
18,RRIRMRPPRLPRPRPRPHAYPRP,0.0623
19,RRIRARPPRLPRPRPRPLQCPRP,0.049
20,RRIRLRPPRLPRPRPRPRIVPRP,-0.175
21,RRIRTRPPRLPRPRPRPTCGPRP,-0.0204
22,RRIRERPPRLPRPRPRPIYPPRP,-0.0605
23,RRIRCRPPRLPRPRPRPIFCPRP,-0.339
24,RRIRTRPPRLPRPRPRPPCYPRP,-0.139
25,RRIRIRPPRLPRPRPRPIYYPRP,-0.539

row,Sequence,shrunken log2 fold change
1,RRIRDRPPRLPRPRPRPAKNPRP,-0.119
2,RRIRDRPPRLPRPRPRPPYYPRP,-0.474
3,RRIRPRPPRLPRPRPRPHFPPRP,-0.204
4,RRIRQRPPRLPRPRPRPKRKPRP,0.684
5,RRIRGRPPRLPRPRPRPWREPRP,0.599
6,RRIRCRPPRLPRPRPRPKEIPRP,0.0368
7,RRIRCRPPRLPRPRPRPKMIPRP,-0.727
8,RRIRLRPPRLPRPRPRPTTDPRP,-0.287
9,RRIRARPPRLPRPRPRPSRLPRP,0.487
10,RRIRPRPPRLPRPRPRPLSQPRP,-0.185
11,RRIRRRPPRLPRPRPRPQAGPRP,-9.87e-05
12,RRIRTRPPRLPRPRPRPINRPRP,0.028
13,RRIRGRPPRLPRPRPRPPSHPRP,0.597
14,RRIRIRPPRLPRPRPRPWPNPRP,-0.0754
15,RRIRARPPRLPRPRPRPNPIPRP,-0.19
16,RRIRDRPPRLPRPRPRPCNRPRP,-0.0148
17,RRIRWRPPRLPRPRPRPPIGPRP,0.324
18,RRIRDRPPRLPRPRPRPWHIPRP,-0.058
19,RRIRNRPPRLPRPRPRPHSIPRP,-0.209
20,RRIRTRPPRLPRPRPRPIWHPRP,0.12
21,RRIRCRPPRLPRPRPRPCEGPRP,0.0324
22,RRIRTRPPRLPRPRPRPGCWPRP,0.453
23,RRIRVRPPRLPRPRPRPYFKPRP,-0.49
24,RRIRARPPRLPRPRPRPNICPRP,-0.0618
25,RRIRQRPPRLPRPRPRPVDGPRP,-0.13
